Entries after “also recorded” stand apart in the source; their conditions may differ.
Key:
[1] = TLC-based radiometric assay of product formation by 2-PS, CHS and CHS mutants (LC/MS confirmation); assay type: biochemical; conditions: for product formed: 100 mM Hepes pH 7.0, 30 μM starter-CoA, 60 μM [14C]-malonyl-CoA, 25° C
Text: Comparison of the initiation/elongation cavities of 2-PS (SEQ ID NO:68) and CHS (SEQ ID NO:1) reveal four amino acid differences. In 2-PS, Leu202, Met259, Leu261, and Ile343 replace Thr197, Ile254, Gly256, and Ser338, respectively, of CHS. These four substitutions reduce cavity volume from 923 Å^3 in CHS to 274 Å^3 in 2-PS. A model of methylpyrone in the 2-PS cavity, based on the position of acetoacetyl-CoA, emphasizes the volume change compared to the CHS-naringenin complex (Accession No. 1 CGK, SEQ ID NO:69). Leu202 and Ile343 occlude the portion of the 2-PS cavity corresponding to the coumaroyl-binding site of CHS. Replacement of Gly256 in CHS by Leu261 in 2-PS severely reduces the size of the active site cavity. Substitution of Met259 in 2-PS for Ile254 in CHS produces a modest alteration in cavity volume. To examine the functional importance of these amino acid differences, the initiation/elongation cavity of CHS was altered by mutagenesis to resemble that of 2-PS. The resulting mutant proteins were screened for activity using either p-coumaroyl-CoA or acetyl-CoA as starter molecules. Activities of 2-PS, CHS, and the CHS mutants were determined by monitoring product formation using a TLC-based radiometric assay. Assay conditions were 100 mM Hepes (pH 7.0), 30 μM starter-CoA (either p-coumaroyl-CoA or acetyl-CoA), and 60 μM [^14C]-malonyl-CoA (50,000 cpm) in 100 μl at 25° C. Reactions were quenched with 5% acetic acid, extracted with ethyl acetate, and applied to TLC plates and developed. Due to the spontaneous cyclization of chalcone into the flavanone naringenin, activities of CHS are referenced to nanngenin formation.
The x-ray crystal structures of 2-PS (SEQ ID NO:68) and CHS (SEQ ID NO:1) imply that the size of the active site cavity limits polyketide length and modulates folding of the polyketide chain. […] Since the T197L, G256L, and S338Imutants (see SEQ ID NO:1) altered product formation, a CHS triple mutant was generated. […] LC/MS/MS analysis was performed by the Mass Spectroscopy facility of the Scripps Research Institute. Scaled-up assays (2 ml reaction volume) with the CHS T197L/G256L/S338I mutant (see SEQ ID NO:1) and 2-PS (SEQ ID NO:68) were performed. Extracts were analyzed on a Hewlett-Packard HP1100 MSD single quadrupole mass spectrometer coupled to a Zorbax SB-C18 column (5 μm, 2.1 mm×150 mm). HPLC conditions were as follows: gradient system from 0 to 100% methanol in water (each containing 0.2% acetic acid) within 10 mm; flow rate 0.25 ml min^−1. LC/MS/MS data from both reactions were identical: 6-methyl-4-hydroxy-2-pyrone, Rt=5.068 mm; [M-H]^−125; [M-H—CO2]^−81. The numbers show m/z values with relative intensities in parenthesis. The observed fragmentation matches previously published data.

[2] = 14C malonyl-CoA assay of CHS mutants, products analysed by TLC and autoradiography (naringenin vs resveratrol); assay type: biochemical; conditions: TLC autoradiography
Text: Wild type CHS produces chalcone, which spontaneously converts to naringenin, the position of which is indicated by the arrow on the left. Wild type STS produces resveratrol, the position of which is indicated by the arrow of the right. Function conversion of CHS to STS (i.e., the production of the alternate product from the same intermediate) results in diminished production of naringenin and increased production of resveratrol. Various mutants of CHS produce varying degrees of resveratrol, showing that CHS activity can be altered to STS-like activity to different extents by different mutations.
Mutant CHS (SEQ ID NO: 1) has altered activity based on assays conducted with ^14C malonyl-CoA. Products were extracted with ethyl acetate and analyzed by silica gel thin layer chromatography (TLC) and visualized by autoradiography.

[3] = starter p-coumaroyl-CoA or acetyl-CoA

| Molecule | product formed [1] | preference for p-coumaroyl-CoA versus acetyl-CoA as starter molecule [1, 3] [fold] | also measured |
| --- | --- | --- | --- |
| 2-PS: 2-Pyrone synthase from Gerbera hybrida, SEQ ID NO:68 [Mutant 2-PS, reference compound] | produces the triketide methylpyrone; also recorded: yields methylpyrone produced from three malonyl-CoA molecules |  | starter molecule accepted [1, 3]: accepts acetyl-CoA but does not use p-coumaroyl-CoA |
| Wild-type CHS: wild type alfalfa chalcone synthase 2, SEQ ID NO:1 [reference compound] | generates the tetraketide chalcone | 230 |  |
| I254M: CHS I254M mutant (protein, listed as Medicago sativa) MVSVSEIRKAQRAEGPATILAIGTANPANCVEQSTYPDFYFKITNSEHKTELKEKFQRMCDKSMIKRRYMYLTEEILKENPNVCEYMAPSLDARQDMVVVEVPRLGKEAAVKAIKEWGQPKSKITHLIVCTTSGVDMPGADYQLTKLLGLRPYVKRYMMYQQGCFAGGTVLRLAKDLAENNKGARVLVVCSEVTAVTFRGPSDTHLDSLVGQALFGDGAAALIVGSDPVPEIEKPIFEMVWTAQTIAPDSEGAMDGHLREAGLTFHLLKDVPGIVSKNITKALVEAFEPLGISDYNSIFWIAHPGGPAILDQVEQKLALKPEKMNATREVLSEYGNMSSACVLFILDEMRKKSTQNGLKTTGEGLEWGVLFGFGPGLTIETVVLRSVAI | yields chalcone |  | function and specific activity relative to wild-type enzyme [1]: functionally comparable to wild-type enzyme with a modest reduction in specific activity |
| T197L: CHS T197L mutant (protein, listed as Medicago sativa) MVSVSEIRKAQRAEGPATILAIGTANPANCVEQSTYPDFYFKITNSEHKTELKEKFQRMCDKSMIKRRYMYLTEEILKENPNVCEYMAPSLDARQDMVVVEVPRLGKEAAVKAIKEWGQPKSKITHLIVCTTSGVDMPGADYQLTKLLGLRPYVKRYMMYQQGCFAGGTVLRLAKDLAENNKGARVLVVCSEVTAVLFRGPSDTHLDSLVGQALFGDGAAALIVGSDPVPEIEKPIFEMVWTAQTIAPDSEGAIDGHLREAGLTFHLLKDVPGIVSKNITKALVEAFEPLGISDYNSIFWIAHPGGPAILDQVEQKLALKPEKMNATREVLSEYGNMSSACVLFILDEMRKKSTQNGLKTTGEGLEWGVLFGFGPGLTIETVVLRSVAI | do not form chalcone; also recorded: form a distinct product using coumaroyl-CoA as a starter molecule | 10 |  |
| G256L: CHS G256L mutant (protein, listed as Medicago sativa) MVSVSEIRKAQRAEGPATILAIGTANPANCVEQSTYPDFYFKITNSEHKTELKEKFQRMCDKSMIKRRYMYLTEEILKENPNVCEYMAPSLDARQDMVVVEVPRLGKEAAVKAIKEWGQPKSKITHLIVCTTSGVDMPGADYQLTKLLGLRPYVKRYMMYQQGCFAGGTVLRLAKDLAENNKGARVLVVCSEVTAVTFRGPSDTHLDSLVGQALFGDGAAALIVGSDPVPEIEKPIFEMVWTAQTIAPDSEGAIDLHLREAGLTFHLLKDVPGIVSKNITKALVEAFEPLGISDYNSIFWIAHPGGPAILDQVEQKLALKPEKMNATREVLSEYGNMSSACVLFILDEMRKKSTQNGLKTTGEGLEWGVLFGFGPGLTIETVVLRSVAI | do not form chalcone |  | preference for acetyl-CoA as starter molecule [1, 3]: 3 fold |
| S338I: CHS S338I mutant (protein, listed as Medicago sativa) MVSVSEIRKAQRAEGPATILAIGTANPANCVEQSTYPDFYFKITNSEHKTELKEKFQRMCDKSMIKRRYMYLTEEILKENPNVCEYMAPSLDARQDMVVVEVPRLGKEAAVKAIKEWGQPKSKITHLIVCTTSGVDMPGADYQLTKLLGLRPYVKRYMMYQQGCFAGGTVLRLAKDLAENNKGARVLVVCSEVTAVTFRGPSDTHLDSLVGQALFGDGAAALIVGSDPVPEIEKPIFEMVWTAQTIAPDSEGAIDGHLREAGLTFHLLKDVPGIVSKNITKALVEAFEPLGISDYNSIFWIAHPGGPAILDQVEQKLALKPEKMNATREVLSEYGNMISACVLFILDEMRKKSTQNGLKTTGEGLEWGVLFGFGPGLTIETVVLRSVAI | do not form chalcone | 3 | product formed ([1]; listed as S3381): form a distinct product using coumaroyl-CoA as a starter molecule |
| T197L/G256L/S338I: CHS triple mutant with cavity resembling 2-PS (protein, listed as Medicago sativa) MVSVSEIRKAQRAEGPATILAIGTANPANCVEQSTYPDFYFKITNSEHKTELKEKFQRMCDKSMIKRRYMYLTEEILKENPNVCEYMAPSLDARQDMVVVEVPRLGKEAAVKAIKEWGQPKSKITHLIVCTTSGVDMPGADYQLTKLLGLRPYVKRYMMYQQGCFAGGTVLRLAKDLAENNKGARVLVVCSEVTAVLFRGPSDTHLDSLVGQALFGDGAAALIVGSDPVPEIEKPIFEMVWTAQTIAPDSEGAIDLHLREAGLTFHLLKDVPGIVSKNITKALVEAFEPLGISDYNSIFWIAHPGGPAILDQVEQKLALKPEKMNATREVLSEYGNMISACVLFILDEMRKKSTQNGLKTTGEGLEWGVLFGFGPGLTIETVVLRSVAI | produces only methylpyrone |  | starter molecule accepted [1, 3]: only accepts acetyl-CoA (or malonyl-CoA) as the starter molecule |
| 14B: alfalfa CHS mutant: V98L, T131S, S133T, G134T, V135P, M137L (protein, UniProt P30074 1-389, looked up, variant V98L T131S S133T G134T V135P M137L) Chalcone synthase 2: MVSVSEIRKAQRAEGPATILAIGTANPANCVEQSTYPDFYFKITNSEHKTELKEKFQRMCDKSMIKRRYMYLTEEILKENPNVCEYMAPSLDARQDMLVVEVPRLGKEAAVKAIKEWGQPKSKITHLIVCSTTTPDLPGADYQLTKLLGLRPYVKRYMMYQQGCFAGGTVLRLAKDLAENNKGARVLVVCSEVTAVTFRGPSDTHLDSLVGQALFGDGAAALIVGSDPVPEIEKPIFEMVWTAQTIAPDSEGAIDGHLREAGLTFHLLKDVPGIVSKNITKALVEAFEPLGISDYNSIFWIAHPGGPAILDQVEQKLALKPEKMNATREVLSEYGNMSSACVLFILDEMRKKSTQNGLKTTGEGLEWGVLFGFGPGLTIETVVLRSVAI |  |  | naringenin amount [2]: reduced amounts of naringenin compared to wild type CHS; resveratrol amount [2]: little or no resveratrol |
| 2B: alfalfa CHS mutant: A1 (D96A, V98L, V99A, V100M), A2 (T131S, S133T, G134T, V135P, M137L) (protein, UniProt P30074 1-389, looked up, variant D96A V98L V99A V100M T131S S133T G134T V135P M137L) Chalcone synthase 2: MVSVSEIRKAQRAEGPATILAIGTANPANCVEQSTYPDFYFKITNSEHKTELKEKFQRMCDKSMIKRRYMYLTEEILKENPNVCEYMAPSLDARQAMLAMEVPRLGKEAAVKAIKEWGQPKSKITHLIVCSTTTPDLPGADYQLTKLLGLRPYVKRYMMYQQGCFAGGTVLRLAKDLAENNKGARVLVVCSEVTAVTFRGPSDTHLDSLVGQALFGDGAAALIVGSDPVPEIEKPIFEMVWTAQTIAPDSEGAIDGHLREAGLTFHLLKDVPGIVSKNITKALVEAFEPLGISDYNSIFWIAHPGGPAILDQVEQKLALKPEKMNATREVLSEYGNMSSACVLFILDEMRKKSTQNGLKTTGEGLEWGVLFGFGPGLTIETVVLRSVAI |  |  | naringenin amount [2]: reduced amounts of naringenin compared to wild type CHS; resveratrol amount [2]: little or no resveratrol |
